± gives the uncertainty stated by the source.

This data set can be described thus: amyloid nucleation score (Sup35N fusion, yeast selection) (log enrichment); library NNK2; higher = more nucleation; inactive = no reads after selection. In a few lines: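 Growth for 7 days at 30°C on medium lacking adenine and uracil followed a 24-hour induction with 100 μM copper sulfate of psi-negative yeast expressing peptides of 20 random codons fused to Sup35N. Input and output plasmid inserts were sequenced with Illumina, and sequences with under 100 input reads were excluded. Nucleation score is the DiMSum log enrichment of output over input reads, centred on the mode score of non-aggregating sequences.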
WQRLKLSEKLVGSAVPLKAG gave an amyloid nucleation score of 4.44 ± 0.11.
For the substance WQRRIGKFCDKQWSFQMMVH, the amyloid nucleation score was -0.021 ± 0.63.
On to WRASK, for which the amyloid nucleation score turned out to be 3.23 ± 0.057.
Take WRCDLSNPTFAMYVDAVWAS: the amyloid nucleation score came out at 1.16 ± 0.18.
WRKRYEYTVRVGRSAKSTLM had an amyloid nucleation score of 0.455 ± 0.37.
Then WRNLDLK, with -0.562 ± 1.1; and WRRFRFLLPWSLRPMS, with “inactive”.
WRYGNDYTFLIMDGC displayed an amyloid nucleation score of -0.511 ± 0.37.
Substance WSCNRNCSIFDR displayed an amyloid nucleation score of -0.373 ± 0.45.
Consider WSDACSGCNFK, for which the amyloid nucleation score result was “inactive”.
Then WSDSFTCDCGKLITTSSRLS, with 2.02 ± 0.15; and WSFLYE, with -0.548 ± 0.33; and WSGWSQGDGLVQGQVMRAFV, with -0.284 ± 0.79.
Then WSMFLLRMAPMRMLTTINFV, with -0.504 ± 0.33.
The substance WSPYEEPR displayed an amyloid nucleation score of 0.298 ± 0.35.
As for WSRMLFGECRSGKLRLPMPR, the figure is 3.73 ± 0.099; as for WTCDCSLKVFCNM, 4.91 ± 0.056; as for WTPTVFVDMHPSNGLVDILY, -0.896 ± 0.61.
Then WTTMRLFLDFMYTLDRVGST, with -0.291 ± 1.1.
Turning to WTVGRRELGCM, the amyloid nucleation score result is “inactive”.
As for WTYGVTRLSSLCSAIDLSLG, the figure is -0.598 ± 1.1; as for WVGAVKFFRSVKRQMSIYLE, “inactive”.
WVGLHVR returned an amyloid nucleation score of 0.525 ± 0.36.
Turning to WVHGIESSRWRFGL, the amyloid nucleation score is -0.474 ± 1.1.
As for WVTIALYCNKLIVTVRGGIG, the figure is -0.029 ± 1.1; as for WVVRK, -1.76 ± 0.44; as for WWFLKLDGRLPKLWAFLTMG, -0.22 ± 0.23.
As for WWNITTEAPIFLIFCFTRQG, the figure is 4.8 ± 0.068; as for WWTVKLLMSEVVFRWELEYI, 5.735 ± 0.04.
As for WYCMNSGASMLCGLRQARFL, the amyloid nucleation score is -0.715 ± 0.76.
As for WYCRVSMRNLYIFGSIRSAY, the figure is 5.34 ± 0.086; as for WYKKATNSVLANVGQDFVVK, -0.41 ± 0.36; as for WYKRVVFPMP, -0.442 ± 1.
As for YACFRPFSDTRRRCGFSTL, the entry is “inactive”; as for YADLISSWVILGWFQRKTLF, 0.228 ± 1.
As for YAFSMDRWVDLMLFQRV, the figure is 4.96 ± 0.092.
Regarding YAGYNISCP, the amyloid nucleation score entry was “inactive”.
YAIICKPLDDPLRKGTRWRR: the amyloid nucleation score was 0.477 ± 0.4.
On to YALAAVSRFG, for which the amyloid nucleation score stood at 0.22 ± 0.55.
YANERNTDFNNRWFLHGIKR showed an amyloid nucleation score of -1.34 ± 1.1.
For YCCFMSRHGSKWHYVNICIF, the amyloid nucleation score result is “inactive”.
YCGFQYLRWGVTVVNS came in with an amyloid nucleation score of 0.386 ± 0.19.
Then YCILLLNVVVMCYMMCDGFA, with 0.635 ± 0.65; and YCINGLGIGTELCVFTTKWM, with -0.479 ± 0.3.
Substance YCMLCQGWDGICLPEVSAVW came in with an amyloid nucleation score of 0.146 ± 0.29.
As for YCNYVTRDSFAFMSSFFMSA, the amyloid nucleation score is -1.55 ± 1.1.
In turn, YCPPFLHNTWAYAKRTGRGS yielded an amyloid nucleation score of -0.137 ± 0.61.
For YCYVSRVFYRMCALAGWMGL, the amyloid nucleation score entry is “inactive”.
As for YDANLRLYSYSRTQLFSSWS, the figure is 3.83 ± 0.088; as for YDDHDFNRAGGLTVTNVWMV, 3.64 ± 0.1.
As for YDLCGTALTVLGTVIY, the figure is 1.15 ± 0.27.
With YDLDEGYSLMFVPQEQICAE, the amyloid nucleation score result is “inactive”.
YDNMC returned an amyloid nucleation score of -0.72 ± 0.35.
As for YDNSYNWTATTFFGSRPDQS, the figure is 4.55 ± 0.048; as for YEGFM, -0.297 ± 0.56.
As for YEIRWFRGLIK, the figure is 0.495 ± 0.43.
For the substance YFDSEPCLHFPCLVEGFRGW, the amyloid nucleation score was -0.54 ± 1.1.
For the substance YFFRVSYVEFVRCFGFSCRW, the amyloid nucleation score was -0.846 ± 0.41.
For the substance YFIRRKIRMGGHLLTWSWWI, the amyloid nucleation score is -0.104 ± 0.49.
Then YFNNPLFVEDFWLSYVSMSY, with -0.749 ± 0.32; and YFPIASALNCSLGCARCCES, with 0.669 ± 0.74; and YFRMNPKFVCTKYSNAEYLS, with -0.427 ± 0.64.
As for YFRNDNGLWEINSCRILFIV, the entry is “inactive”.
As for YFSSQLDLRRIMLLLSRYV, the figure is 0.721 ± 0.54; as for YFVVL, -1.78 ± 0.62.
YFYITTCSGMSTDVFMNLLT had an amyloid nucleation score of -0.422 ± 1.
As for YGAWRFGRLALSRRPSYCGM, the amyloid nucleation score is -0.271 ± 0.27.
Then YGDYMFHPETAVSL, with 4.49 ± 0.064; and YGFGRHKNGAAMPTMYFAMS, with -0.014 ± 0.41; and YGFKGTSLR, with -0.506 ± 0.28.
As for YGFSGMMNSFSFHGC, the figure is 6.07 ± 0.083.
YGKIL came in with an amyloid nucleation score of -0.956 ± 1.
For YGPWSCLI, the amyloid nucleation score result was “inactive”.
As for YGQIITSEKNRRNYMCPFSG, the figure is -0.393 ± 1.1.
As for YGSESVGGSQRSGNLSWGTG, the figure is 0.257 ± 0.64; as for YGSFIWWLPCNGMGLKCSRS, 1.67 ± 0.12; as for YGSFWTFRFLGT, 4.12 ± 0.073.
On to YGTKQVGKNRFFEHSYYYWP, for which the amyloid nucleation score entry was “inactive”.
Then YGTWKVRKCGLSIFGVGGPD, with -0.303 ± 0.63; and YGYCIISHTLNLLLGQYLCY, with 4.99 ± 0.068; and YHCCFRSKAGFQESQDITIR, with -0.18 ± 0.24.
YHFFKCRPCSFSWLITGMVK: the amyloid nucleation score was -0.287 ± 0.63.
As for YHIWRYHATSSHTFARFSSV, the figure is 1.62 ± 0.51; as for YHLSELVMRREWSDWYNVCG, 0.126 ± 0.43; as for YHNWSA, 0.025 ± 0.23.
As for YHTRIYDL, the figure is 0.576 ± 0.45; as for YIAILFYMC, 7.2 ± 0.044; as for YICVFLDSYLGHMYRPHWRV, 1.91 ± 0.13.
YIGVIT displayed an amyloid nucleation score of 5.38 ± 0.1.
On to YILSWARFIEYDYLTPRVYS, for which the amyloid nucleation score amounted to 0.356 ± 0.57.
Then YIRCYRNV, with -0.536 ± 0.33; and YISMKWEVAHNYWWILSGIP, with 0.444 ± 0.25; and YIVPSKRIWFFGLSSNGDST, with 0.102 ± 0.41.
As for YIWILWIAMEQNKSWRGQHD, the figure is 4.44 ± 0.12.
In the case of YIWYCRMPTSSNTVSNL, the amyloid nucleation score entry is “inactive”.
As for YIYLNEKFCITYMRESWNCC, the figure is 0.651 ± 0.39.
With YIYRNITRLQKSCSIIISGR, the amyloid nucleation score is -1.88 ± 0.64.
The substance YIYYNYKGLSVVFLSNSNMW displayed an amyloid nucleation score of 2.88 ± 0.12.
As for YKAAIGFCINQCLRHHVTKR, the entry is “inactive”.
As for YKDHGCNDSWK, the figure is -0.572 ± 0.44; as for YKEVWY, -0.284 ± 0.45.
As for YKFRYWAYFFSDVAGVI, the figure is -1.75 ± 0.75.
The substance YKLRSQ registered an amyloid nucleation score of -0.184 ± 0.27.
In the case of YLCGFNIVPHRYINFRVWTE, the amyloid nucleation score was 4.39 ± 0.11.
Then YLGCRDPTRCFLLVHVPDLY, with -0.127 ± 1; and YLGGMGSICDVNPCLYNRFL, with 0.655 ± 0.16.
Then YLGLDARLI, with 0.661 ± 0.8.
As for YLICD, the figure is -0.578 ± 0.76.
YLLALRCLFLLYRVYWFSIE yielded an amyloid nucleation score of -0.129 ± 0.39.
Then YLLLLIMDLFKGRACHPRHA, with “inactive”.
As for YLLMTKCVTVAERMGIMISC, the figure is -0.95 ± 1.
Regarding YLQVWYTREFYIFRGKMDLL, the amyloid nucleation score entry is “inactive”.
YLRMDLVKWKWVGDGSQVC displayed an amyloid nucleation score of 2.86 ± 0.08.
As for YLSGLIIS, the figure is -0.593 ± 1.1; as for YLSGYRLRTVVAVDTGMWYV, 2.65 ± 0.13; as for YLSRWYLKILQVSWRSVHSS, -0.712 ± 0.36.
Then YLTNNLVLWFDICDEERYWW, with 5.45 ± 0.059.
YLVFKYTRGMFLVLCTPIWV had an amyloid nucleation score of -1.17 ± 0.39.
As for YLWDTIYIDLSVLLVLATSW, the figure is 0.21 ± 0.54; as for YLWPALPR, 0.142 ± 0.46.
For YLWWMKSNY, the amyloid nucleation score entry is “inactive”.
Then YLYKCNM, with “inactive”; and YMCRVYMSNSINDFDLPHLL, with 2.06 ± 0.29.
As for YMDMWGR, the figure is -0.81 ± 0.41.
Regarding YMFDFYFVLYESKYAWINPK, the amyloid nucleation score entry is “inactive”.
The substance YMFYPNCRSRC showed an amyloid nucleation score of 0.59 ± 0.15.
YMIYCFITVGCFISTLHYCG returned an amyloid nucleation score of 1.68 ± 0.15.
As to YMLTIRFICFGAVGHSDMHE, the amyloid nucleation score was determined as 0.672 ± 0.18.
On to YMLWGWFFLNGFYTVIGIVP, for which the amyloid nucleation score entry is “inactive”.
YMRGITHSAGCSSLAINVEH had an amyloid nucleation score of -1.23 ± 1.1.
As for YMSIHSKAGMVSLDLKCLCT, the figure is -0.427 ± 1; as for YNGLMNISIATMC, -1.17 ± 0.74; as for YNIIYWFLYKVQAWSVCSWG, 5.31 ± 0.077.
For the substance YNKGNACISGYYGCSLA, the amyloid nucleation score amounted to 7.41 ± 0.083.
Then YNKLGCTARFTRAMWTFCGV, with 0.066 ± 1; and YNKRVSWKYWMWHEYAMRGW, with 5.21 ± 0.057; and YNKWLMASLPRIVGT, with -0.47 ± 1.1.
As for YNLFYELNLVLIP, the figure is 6.137 ± 0.05; as for YNLNCHLFSAWTFNYKIAFL, 5.958 ± 0.043.

For the origin of these results see the supplement of paper PMC12042874.
